The supplement of paper PMC10126150
± gives the standard deviation of the averaged measurements.
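Note: ATP exposure 15 min at 22 °C before imaging.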

What follows are sequences tested on ATP (assay: switch fluorescence ratio, 500 uM ATP over buffer (Cy3 cluster intensity, sum of 5 cycles each) (fold (ratio)); higher = stronger signal-on switching upon ATP binding; sequences stand for … in TCGTCGGCAGCGTCAGATGTGTATAAGAGACAGTTTTTTTTTTTTTTTTTTTTTTTTT…TC). Settings: aptamer strand: ATP DNA aptamer (quencher-CACCTGGGGGAGTATTGCGGAGGAAGG + anchor), 100 nM annealed; ATP concentration: 500 uM.
Summary of the method: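 Five buffer/ATP imaging cycles were run on Cy3-labelled switching-strand clusters on a modified Illumina MiSeq flow-cell, with NaOH stripping and re-annealing between cycles. In each cycle, clusters annealed to 100 nM quencher-labelled ATP aptamer were imaged in selection buffer, then after 15 min with 500 uM ATP at 22 °C. Per cluster, the fluorescence ratio is summed target-cycle over summed buffer-cycle Cy3 intensity, averaged per switch-domain sequence. Only clusters within 100-1000 RFU were kept.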
In the case of GCTTTTCGAT, the switch fluorescence ratio is reported as 0.994 ± 0.035.
GCTTTTGCCG was tested, and the switch fluorescence ratio was 0.993 ± 0.036.
GCTTTTGCGG was tested, and the switch fluorescence ratio was 0.981 ± 0.045.
Sequence GCTTTTTAGT has a switch fluorescence ratio of 1.006 ± 0.0021.
In the case of GCTTTTTCCA, the switch fluorescence ratio is reported as 0.975 ± 0.035.
In the case of GCTTTTTGC, the switch fluorescence ratio is reported as 0.951 ± 0.065.
With GCTTTTTGTA the switch fluorescence ratio was 0.981 ± 0.032.
For GCTTTTTGTC, the switch fluorescence ratio was 1.06 ± 0.013.
For GGAAAAGTTT, the switch fluorescence ratio was 0.986 ± 0.04.
Sequence GGAAAATAAT has a switch fluorescence ratio of 1.01 ± 0.035.
GGAAAATGTA showed a switch fluorescence ratio of 1.023 ± 0.0063.
GGAAAATTTT showed a switch fluorescence ratio of 0.994 ± 0.033.
In the case of GGAAAGATGT, the switch fluorescence ratio is reported as 1.01 ± 0.027.
Sequence GGAAAGATTG has a switch fluorescence ratio of 0.991 ± 0.041.
GGAAAGCGTG was tested, and the switch fluorescence ratio was 0.993 ± 0.084.
For GGAAAGGGGT, the switch fluorescence ratio was 1.03 ± 0.082.
Work on GGAAAGTAGG yielded a switch fluorescence ratio of 1.01 ± 0.046.
GGAAATATCG showed a switch fluorescence ratio of 0.989 ± 0.021.
GGAAATGAAT showed a switch fluorescence ratio of 1.02 ± 0.029.
Sequence GGAAATTGGG has a switch fluorescence ratio of 0.994 ± 0.016.
GGAACAAGGT showed a switch fluorescence ratio of 0.988 ± 0.059.
GGAACCCGTG gave a switch fluorescence ratio of 0.997 ± 0.048.
GGAACGAAAG showed a switch fluorescence ratio of 0.995 ± 0.043.
GGAACGGGCT showed a switch fluorescence ratio of 1 ± 0.021.
GGAACGGGGG showed a switch fluorescence ratio of 1.02 ± 0.014.
In the case of GGAACGTGAG, the switch fluorescence ratio is reported as 1.011 ± 0.0011.
Work on GGAACTGGCG yielded a switch fluorescence ratio of 0.938 ± 0.094.
Work on GGAACTTGTT yielded a switch fluorescence ratio of 0.99 ± 0.012.
Work on GGAAGAAAAA yielded a switch fluorescence ratio of 1.01 ± 0.067.
Sequence GGAAGAAAAC has a switch fluorescence ratio of 1.008 ± 0.0045.
GGAAGAAGAT was tested, and the switch fluorescence ratio was 0.982 ± 0.033.
In the case of GGAAGAGAAC, the switch fluorescence ratio is reported as 0.995 ± 0.017.
GGAAGATTCG showed a switch fluorescence ratio of 0.984 ± 0.03.
GGAAGCTTCC showed a switch fluorescence ratio of 1.127 ± 0.0032.
Work on GGAAGGAGGA yielded a switch fluorescence ratio of 0.973 ± 0.015.
Sequence GGAAGGGATG has a switch fluorescence ratio of 1 ± 0.026.
For GGAAGGGGCT, the switch fluorescence ratio was 1.08 ± 0.12.
In the case of GGAAGGGGGG, the switch fluorescence ratio is reported as 1.01 ± 0.024.
Sequence GGAAGGTACG has a switch fluorescence ratio of 0.9856 ± 0.0062.
GGAAGGTTCG gave a switch fluorescence ratio of 1.01 ± 0.033.
For GGAAGTATTA, the switch fluorescence ratio was 0.966 ± 0.017.
GGAAGTGTGG was tested, and the switch fluorescence ratio was 1 ± 0.05.
GGAAGTGTGT showed a switch fluorescence ratio of 0.949 ± 0.021.
For GGAAGTTAGA, the switch fluorescence ratio was 0.9819 ± 0.0036.
GGAATAGGGG was tested, and the switch fluorescence ratio was 0.991 ± 0.018.
Work on GGAATAGTGG yielded a switch fluorescence ratio of 0.982 ± 0.025.
Sequence GGAATATGTG has a switch fluorescence ratio of 0.998 ± 0.0093.
GGAATCATGG showed a switch fluorescence ratio of 0.996 ± 0.046.
For GGAATCATTT, the switch fluorescence ratio was 0.972 ± 0.015.
GGAATCGGAA was tested, and the switch fluorescence ratio was 1.02 ± 0.034.
GGAATCTGTT showed a switch fluorescence ratio of 0.993 ± 0.068.
Work on GGAATGAAGG yielded a switch fluorescence ratio of 1 ± 0.0041.
In the case of GGAATGGGGC, the switch fluorescence ratio is reported as 0.993 ± 0.052.
GGAATGGGTA showed a switch fluorescence ratio of 0.997 ± 0.027.
Sequence GGAATGTACG has a switch fluorescence ratio of 1 ± 0.041.
Sequence GGAATGTGTT has a switch fluorescence ratio of 0.972 ± 0.013.
With GGAATTACAG the switch fluorescence ratio was 1.02 ± 0.046.
With GGAATTACCG the switch fluorescence ratio was 1.031 ± 0.0025.
With GGAATTAGGT the switch fluorescence ratio was 0.9903 ± 0.0077.
For GGAATTATAA, the switch fluorescence ratio was 0.99 ± 0.027.
Sequence GGAATTATCG has a switch fluorescence ratio of 0.98808 ± 0.00049.
Work on GGAATTCTCC yielded a switch fluorescence ratio of 1.21 ± 0.03.
GGAATTTCTT gave a switch fluorescence ratio of 1.01 ± 0.047.
With GGAATTTGGC the switch fluorescence ratio was 1.02 ± 0.052.
GGACAAACGT showed a switch fluorescence ratio of 1.2 ± 0.052.
With GGACAAACTC the switch fluorescence ratio was 1.04 ± 0.036.
Work on GGACAAGGGT yielded a switch fluorescence ratio of 1.02 ± 0.037.
With GGACAATGGG the switch fluorescence ratio was 0.985 ± 0.033.
GGACACCGGG showed a switch fluorescence ratio of 1.04 ± 0.015.
GGACAGGCAT was tested, and the switch fluorescence ratio was 0.9852 ± 0.0091.
With GGACAGTGAT the switch fluorescence ratio was 1.01 ± 0.034.
In the case of GGACAGTGTA, the switch fluorescence ratio is reported as 1.01 ± 0.02.
For GGACCGTTTT, the switch fluorescence ratio was 0.998 ± 0.016.
Sequence GGACGATGGT has a switch fluorescence ratio of 1 ± 0.026.
For GGACGCATGG, the switch fluorescence ratio was 1.33 ± 0.071.
GGACGGAGGT gave a switch fluorescence ratio of 0.959 ± 0.038.
Sequence GGACGGGGGC has a switch fluorescence ratio of 1 ± 0.016.
GGACGGGGGT gave a switch fluorescence ratio of 1.01 ± 0.038.
GGACGGTAGG gave a switch fluorescence ratio of 0.979 ± 0.011.
GGACGTAAGG was tested, and the switch fluorescence ratio was 0.977 ± 0.016.
With GGACGTTGAG the switch fluorescence ratio was 0.985 ± 0.021.
With GGACTATTTG the switch fluorescence ratio was 1.003 ± 0.0011.
With GGACTCAGAA the switch fluorescence ratio was 0.9867 ± 0.0045.
Sequence GGACTCGCTC has a switch fluorescence ratio of 1.02 ± 0.018.
GGACTCGGGC showed a switch fluorescence ratio of 0.985 ± 0.031.
Sequence GGACTGAAGT has a switch fluorescence ratio of 1.02 ± 0.038.
In the case of GGACTGGAAG, the switch fluorescence ratio is reported as 1.19 ± 0.051.
Work on GGACTTCCTG yielded a switch fluorescence ratio of 1.003 ± 0.0065.
For GGACTTTTGT, the switch fluorescence ratio was 0.984 ± 0.02.
Sequence GGAGAAATCG has a switch fluorescence ratio of 1.06 ± 0.012.
With GGAGAAATCT the switch fluorescence ratio was 1.12 ± 0.022.
Work on GGAGAATTAT yielded a switch fluorescence ratio of 0.991 ± 0.024.
Sequence GGAGACTGGT has a switch fluorescence ratio of 1.02 ± 0.063.
In the case of GGAGACTTTA, the switch fluorescence ratio is reported as 1.006 ± 0.0056.
Work on GGAGAGGGCG yielded a switch fluorescence ratio of 0.991 ± 0.066.
Sequence GGAGAGGGTT has a switch fluorescence ratio of 1.022 ± 0.0044.
Work on GGAGATTGCG yielded a switch fluorescence ratio of 0.96 ± 0.046.
Work on GGAGATTTGT yielded a switch fluorescence ratio of 1.01 ± 0.032.
GGAGATTTTT gave a switch fluorescence ratio of 0.977 ± 0.044.
Sequence GGAGCAGCTG has a switch fluorescence ratio of 0.97336 ± 0.00053.
